Assay results: patent US6380373B1, “Steroid receptor coactivator compositions and methods of use” (Baylor College of Medicine, priority 1995, dated 2002)

How the values were obtained:
Assay type in all cases: cell-based
hPR = biological target: T1, hPR (Homo sapiens, UniProt P06401); test: Squelching of hPR transactivation by hER and its reversal by SRC-1, CAT assay in HeLa cells
T1 construct: expressed in transfected cells; host or cells: HeLa
T1 sequence (P06401 1-933): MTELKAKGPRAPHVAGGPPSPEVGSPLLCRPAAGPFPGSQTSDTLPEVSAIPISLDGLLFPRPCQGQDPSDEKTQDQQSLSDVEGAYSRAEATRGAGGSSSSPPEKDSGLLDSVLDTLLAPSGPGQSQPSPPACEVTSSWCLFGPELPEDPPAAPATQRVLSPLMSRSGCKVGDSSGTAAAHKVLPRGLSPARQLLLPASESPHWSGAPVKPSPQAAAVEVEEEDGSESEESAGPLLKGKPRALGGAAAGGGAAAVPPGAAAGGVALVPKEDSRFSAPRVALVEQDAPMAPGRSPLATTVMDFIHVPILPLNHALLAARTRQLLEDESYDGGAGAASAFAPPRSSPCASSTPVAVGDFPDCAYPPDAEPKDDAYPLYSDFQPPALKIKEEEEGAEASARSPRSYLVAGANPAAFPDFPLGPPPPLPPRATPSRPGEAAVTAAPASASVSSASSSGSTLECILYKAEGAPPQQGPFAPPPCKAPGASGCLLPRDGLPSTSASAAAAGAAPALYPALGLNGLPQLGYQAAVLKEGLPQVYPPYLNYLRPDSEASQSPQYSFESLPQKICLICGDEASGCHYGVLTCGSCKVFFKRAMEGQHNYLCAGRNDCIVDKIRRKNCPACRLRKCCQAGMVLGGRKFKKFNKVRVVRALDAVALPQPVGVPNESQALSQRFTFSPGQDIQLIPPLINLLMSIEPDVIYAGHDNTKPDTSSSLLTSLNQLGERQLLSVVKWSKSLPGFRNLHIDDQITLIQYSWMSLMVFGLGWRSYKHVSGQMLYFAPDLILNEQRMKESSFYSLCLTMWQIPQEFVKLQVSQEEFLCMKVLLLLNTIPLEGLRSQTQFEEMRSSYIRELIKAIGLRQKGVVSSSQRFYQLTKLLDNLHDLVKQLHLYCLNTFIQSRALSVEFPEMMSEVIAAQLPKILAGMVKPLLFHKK
Experimental: (§1) Lipofectin (GibcoBRL) was selected for transfection of Hela cells.
HeLa cells were transfected with 1 μg of both hPR and hER expression vectors, together with 5 μg of PRE2-TATA-CAT and increasing amounts of SRC-1. Cells were then exposed to ligands R5020 and/or E2 (2×10^−8 M) and CAT activities determined 42 h later using 40 μg of proteins extract. The percentage of chloramphenicol conversion to the mono and diacetylated form was determined and represents the average of three independent experiments (Xn=3±SEM).

CREB = test: CAT reporter assay CREB/CRE-tk-CAT in HeLa cells, with and without forskolin; settings: without and with 1 μM forskolin
Experimental: as §1
The CAT activity of the reporter was determined.

TR = biological target: T2, TR (Homo sapiens, UniProt P10828); test: CAT reporter assay TR/DR4-tk-CAT in HeLa cells; parameters: expressed in transfected cells; settings: 3 μg SRC-1, Triac 2×10^−8 M
T2 sequence (P10828 1-461): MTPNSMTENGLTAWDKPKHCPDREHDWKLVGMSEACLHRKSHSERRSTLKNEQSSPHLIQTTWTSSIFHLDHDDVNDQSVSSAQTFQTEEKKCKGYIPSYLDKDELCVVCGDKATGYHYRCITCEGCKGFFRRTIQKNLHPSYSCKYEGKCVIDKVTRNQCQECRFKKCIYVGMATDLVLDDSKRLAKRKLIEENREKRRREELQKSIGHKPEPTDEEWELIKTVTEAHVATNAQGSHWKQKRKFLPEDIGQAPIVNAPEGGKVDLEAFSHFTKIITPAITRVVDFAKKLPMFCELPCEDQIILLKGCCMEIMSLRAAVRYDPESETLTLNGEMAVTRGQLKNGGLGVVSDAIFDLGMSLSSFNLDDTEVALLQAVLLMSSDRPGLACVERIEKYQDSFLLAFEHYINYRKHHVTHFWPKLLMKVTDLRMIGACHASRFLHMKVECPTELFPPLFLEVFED
Experimental: Biol. 13, 6501-6508), Sp1 and Sp1-tk-CAT (Courey, A. J. and Tjian, R. (1988), Cell 55, 887-898), CREB and CRE-tk-CAT (Chrivia, J. C. et al., (1993), Nature 365, 855) and GAL4VP16 and 17mer-tk-CAT (Baniahmad, A. et al., (1992), EMBO J. 11, 1015-1023) have been previously described and the above references are incorporated herein by reference in their entirety, including any drawings.
as §1
HeLa cells were cotransfected with 0.5 μg of cDNAs encoding various steroid receptors indicated and 5 μg of their cognates HREs containing reporters, including PR/PRE2-TATA-CAT, ER/ERE2-TATA-CAT, GR/PRE2-TATA-CAT, TR-/DR4-tk-CAT and RXR/DR1-tk-CAT, along with 3 μg of SRC-1 or empty expression vector. Cells were then treated with their corresponding ligands (PR:R5020, ER:estradiol, GR:dexamethasone, TR:Triac, RXR:9-cis retinoic acid) at a concentration of 2×10^−8M. The CAT activity of the reporter was determined using 14 μg of protein extract.

B1: steroid receptor coactivator-one (SRC-1), full-length (protein)
chain: MSIPRVNPSVNPSISPAHGVARSSTLPPSNSNMVSTRINRQQSSDLHSSSHSNSSNSQGSFGCSPGSQIVANVALNKGQASSQSSKPSLNLNNPPMEGTGISLAQFMSPRRQVTSGLATRPRMPNNSFPPNISTLSSPVGMTSSACNNNNRSYSNIPVTSLQGMNEGPNNSVGFSASSPVLRQMSSQNSPSRLNIQPAKAESKDNKEIASTLNEMIQSDNSSSDGKPLDSGLLHNNDRLSDGDSKYSQTSHKLVQLLTTTAEQQLRHADIDTSCKDVLSCTGTSNSASANSSGGSCPSSHSSLTARHKILHRLLQEGSPSDITTLSVEPDKKDSASTSVSVTGQVQGNSSIKLELDASKKKESKDHQLLRYLLDKDEKDLRSTPNLSLDDVKVKVEKKEQMDPCNTNPTPMTKATPEEIKLEAQSQFTADLDQFDQLLPTLEKAAQLPGLCETDRMDGAVTSVTIKSEILPASLQSATARPTSRLNRLPELELEAIDNQFGQPGTGDQIPWTNNTVTAINQSKSEDQCISSQLDELLCPPTTVEGRNDEKALLEQLVSFLSGKDETELAELDRALGIDKLVQGGGLDVLSERFPPQQATPPLIMEERPNLYSQPYSSPFPTANLPSPFQGMVRQKPSLGTMPVQVTPPRGAFSPGMGMQPRQTLNRPPAAPNQLRLQLQQRLQGQQQLIHQNRQAILNQFAATAPVGINMRSGMQQQITPQPPLNAQMLAQRQRELYSQQHRQRQLIQQQRAMLMRQQSFGNNLPPSSGLPVQTGNPRLPQGAPQQFPYPPNYGTNPGTPPASTSPFSQLAANPEASLANRNSMVSRGMTGNIGGQFGTGINPQMQQNVFQYPGAGMVPQGEANFAPSLSPGSSMVPMPIPPPQSSLLQQTPPASGYQSPDMKAWQQGAIGNNNVFSQAVQNQPTPAQPGVYNNMSITVSMAGGNTNVQNMNPMMAQMQMSSLQMPGMNTVCPEQINDPALRHTGLYCNQLSSTDLLKTEADGTQQVQQVQVFADVQCTVNLVGGDPYLNQPGPLGTQKPTSGPQTPQAQQKSLLQQLLTE
reversal of hER squelching of hPR transactivation (hPR; HeLa cells, increasing amounts of SRC-1, dose-dependent, in the presence of estrogen): ~16 fold
stimulation of PR transactivation (hPR; highest concentration of SRC-1 (2 μg), without estrogen squelching): ~5 fold
effect on basal and forskolin-stimulated transcriptional activities of CREB (CREB): did not affect
effect on TR transcriptional activity (TR): enhance
